Here are results for two molecules from article PMC6884549, “Alkyladenine DNA glycosylase associates with transcription elongation to coordinate DNA repair with gene expression” (Nature Communications, 2019).

First the molecules themselves.
B1: FLAG-tagged ELP1, purified recombinant (natural protein, human, UniProt O95163 1-1332, looked up)
chain: MRNLKLFRTLEFRDIQGPGNPQCFSLRTEQGTVLIGSEHGLIEVDPVSREVKNEVSLVAEGFLPEDGSGRIVGVQDLLDQESVCVATASGDVILCSLSTQQLECVGSVASGISVMSWSPDQELVLLATGQQTLIMMTKDFEPILEQQIHQDDFGESKFITVGWGRKETQFHGSEGRQAAFQMQMHESALPWDDHRPQVTWRGDGQFFAVSVVCPETGARKVRVWNREFALQSTSEPVAGLGPALAWKPSGSLIASTQDKPNQQDIVFFEKNGLLHGHFTLPFLKDEVKVNDLLWNADSSVLAVWLEDLQREESSIPKTCVQLWTVGNYHWYLKQSLSFSTCGKSKIVSLMWDPVTPYRLHVLCQGWHYLAYDWHWTTDRSVGDNSSDLSNVAVIDGNRVLVTVFRQTVVPPPMCTYQLLFPHPVNQVTFLAHPQKSNDLAVLDASNQISVYKCGDCPSADPTVKLGAVGGSGFKVCLRTPHLEKRYKIQFENNEDQDVNPLKLGLLTWIEEDVFLAVSHSEFSPRSVIHHLTAASSEMDEEHGQLNVSSSAAVDGVIISLCCNSKTKSVVLQLADGQIFKYLWESPSLAIKPWKNSGGFPVRFPYPCTQTELAMIGEEECVLGLTDRCRFFINDIEVASNITSFAVYDEFLLLTTHSHTCQCFCLRDASFKTLQAGLSSNHVSHGEVLRKVERGSRIVTVVPQDTKLVLQMPRGNLEVVHHRALVLAQIRKWLDKLMFKEAFECMRKLRINLNLIYDHNPKVFLGNVETFIKQIDSVNHINLFFTELKEEDVTKTMYPAPVTSSVYLSRDPDGNKIDLVCDAMRAVMESINPHKYCLSILTSHVKKTTPELEIVLQKVHELQGNAPSDPDAVSAEEALKYLLHLVDVNELYDHSLGTYDFDLVLMVAEKSQKDPKEYLPFLNTLKKMETNYQRFTIDKYLKRYEKAIGHLSKCGPEYFPECLNLIKDKNLYNEALKLYSPSSQQYQDISIAYGEHLMQEHMYEPAGLMFARCGAHEKALSAFLTCGNWKQALCVAAQLNFTKDQLVGLGRTLAGKLVEQRKHIDAAMVLEECAQDYEEAVLLLLEGAAWEEALRLVYKYNRLDIIETNVKPSILEAQKNYMAFLDSQTATFSRHKKRLLVVRELKEQAQQAGLDDEVPHGQESDLFSETSSVVSGSEMSGKYSHSNSRISARSSKNRRKAERKKHSLKEGSPLEDLALLEALSEVVQNTENLKDEVYHILKVLFLFEFDEQGRELQKAFEDTLQLMERSLPEIWTLTYQQNSATPVLGPNSTANSIMASYQQQKTSVPVLDAELFIPPKINRRTQWKLSLLD
notes: ELP1 (IKBKAP), cDNA excised from pCMV6-XL5-ELP1 (OriGene) and inserted into pcDNA3.1(+)-3xFLAG; Seen as a dimer after BS3 cross-linking; Purified in one step from human cells, so other Elongator subunits might be present (my surmise); also called FLAG-ELP1; ELP1 dimer
B2: AAG lacking 80 N-terminal amino acids, purified recombinant (domain or fragment, human, UniProt P29372 81-298, looked up)
chain: GHLTRLGLEFFDQPAVPLARAFLGQVLVRRLPNGTELRGRIVETEAYLGPEDEAAHSRGGRQTPRNRGMFMKPGTLYVYIIYGMYFCMNISSQGDGACVLLRALEPLEGLETMRQLRSTLRKGTASRVLKDRELCSGPSKLCQALAINKSFDQRDLAQDEAVWLERGPLEPSEPAVVAAARVGVGHAGEWARKPLRFYVRGSPWVSVVDRVAEQDTQA
notes: Alkyladenine DNA glycosylase (AAG, MPG), human, lacking the first 80 N-terminal amino acids; also called Δ80 AAG; ∆80AAG

Data set [1] deals with the molecule itself. The data set is described as follows: cross-linking; 10 µM of purified proteins in 0.1 M sodium phosphate, 0.15 M NaCl, pH 7.4, 30 min at RT; BS3 at 0, 0.1 and 0.5 mM for 1 h at 4 °C; gel shift read by immunoblot; single proteins with the highest amount of BS3 as controls.
Data set [2] deals with B1. The data set is described as follows: co-IP; purified proteins: 1 µg of protein with 1 µg of antibody overnight at 4 °C in 200 µl IP buffer (20 mM HEPES pH 7.9, 140 mM NaCl, 0.01% NP-40), Protein-A sepharose beads, immunoblot. To be noted: both partners purified. In general terms: A western blot detects proteins with antibodies after separation by electrophoresis.

The stoichiometry N is the number of molecules, sites or subunits per partner or assembly. For B1, in data set [1], the “stoichiometry N” value is 2. As for B2, the binding result in data set [2] is “binds”.
